Target: esr1_human ESR1 (UniProt P03372)
Sequence (P03372 whole entry): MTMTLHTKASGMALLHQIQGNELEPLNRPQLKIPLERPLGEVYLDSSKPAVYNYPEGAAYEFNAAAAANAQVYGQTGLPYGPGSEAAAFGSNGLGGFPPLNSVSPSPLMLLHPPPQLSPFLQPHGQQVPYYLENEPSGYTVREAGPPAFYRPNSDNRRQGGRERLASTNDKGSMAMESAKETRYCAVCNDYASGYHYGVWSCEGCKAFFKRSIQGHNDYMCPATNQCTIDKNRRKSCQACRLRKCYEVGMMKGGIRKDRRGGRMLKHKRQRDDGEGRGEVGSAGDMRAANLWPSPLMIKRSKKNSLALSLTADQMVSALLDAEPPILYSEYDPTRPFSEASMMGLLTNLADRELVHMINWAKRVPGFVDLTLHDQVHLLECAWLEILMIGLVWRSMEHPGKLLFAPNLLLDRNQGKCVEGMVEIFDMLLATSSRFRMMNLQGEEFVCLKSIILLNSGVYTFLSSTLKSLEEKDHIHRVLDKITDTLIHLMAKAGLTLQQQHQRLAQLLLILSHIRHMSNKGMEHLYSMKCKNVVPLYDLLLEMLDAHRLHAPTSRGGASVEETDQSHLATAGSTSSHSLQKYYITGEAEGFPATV

Nuclear receptor coactivator 2 (Homo sapiens), Q15596 L644A;L645A;L693A;L694A;L748A;L749A
effect of a mutation on the interaction: disrupting interaction

From IntAct's records for PubMed 11265755
